This assay addresses T1, human Aβ1-42 oligomers (human, UniProt P05067 672-713, fluorescently labeled in the TIRF imaging (HiLyte Fluor 647-labeled peptide bought, paragraph 100; 'AlexFlour647-conjugated' in paragraph 102); position not stated).
T1 construct: domain: Aβ1-42; Preformed oligomers; only the Aβ1-42 peptide was used; also called labeled Aβ1-42 oligomers; HiLyte Fluor 647-labeled Aβ1-42
Kind of assay: TIRF single molecule imaging with photobleaching of aggregates formed in Httl4A2.6 lysates (data not shown). As to the method:
Httl4A2.6 cells were treated with 0.5 μM of Aβ1-40, Aβ1-42, alpha-synuclein, and A53T alpha-synuclein, Alzheimer's disease (AD), and Parkinson's disease—associated oligomers, in the same manner as polyQ seeds. No significant enhancement of intracellular mHttex 1-GFP aggregates was detected (data not shown). Confirming results were obtained from filter retardation-GFP immunoblotting following cell-free aggregation assays; no notable changes in mHttex1 aggregation were found in the cell lysates with up to 5 μM of Aβ1-40, Aβ1-42, alpha-synuclein, and A53T alpha-synuclein oligomeric seeds (data not shown). These observations were further corroborated by the total internal reflection microscopy (TIRF) single molecule imaging results based on photobleaching of mHttex1-GFP aggregates formed in Httl4A2.6 lysates seeded with either AlexFlour647-conjugated polyQ or Aβ1-42 oligomers (data not shown). In contrast to the polyQ oligomers, which were mostly linked with mHttex1-GFP aggregates from photobleaching imaging, few labeled Aβ1-42 oligomers overlapped with GFP fluorescence from the mHttex1-GFP aggregates.

The results in this text go back to patent US20160178645A1 (University of California, published 2016).

T1 sequence (P05067 672-713 limits assumed): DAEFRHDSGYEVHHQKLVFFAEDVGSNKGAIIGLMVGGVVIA

B1: mHttex1-GFP (truncated expanded repeat Httn exon 1 protein fused at the C-terminus to EGFP) (other)
chain: MATLEKLMKAFESLKSFQQQQQQQQQQQQQQQQQQQQQQQQQQQQQQQQQQQQQQQQQQQQQQQQQQQQQQQQQQQQQQQQQQQQQQQQQQQQQQQQQQQQQQQQQQQQQQQQQQQQQQ
notes: Expressed in Httl4A2.6 inducible PC12 cells after Ponasterone A induction; tested inside cells or in cell lysate supernatants; No linker between Httn part and EGFP is described; also called N17-103Q-EGFP; GFP-tagged mHtt exon 1 protein; not shown: enhanced green fluorescent protein (EGFP), fused at the C-terminus; EGFP is an eng
For B1, the binding result is recorded as “no binding”.
